Test results taken from PMC5096715, “Mapping the Complement Factor H-Related Protein 1 (CFHR1):C3b/C3d Interactions” (PLoS ONE, 2016).

Biological target: the molecule itself
Assay: SEC; preparative HiPrep 16/60 Sephacryl S200 column in DPBS pH 7.4

B1: complement factor H-related protein 1 (CFHR1), recombinant wild-type (natural protein, human, UniProt Q03591 19-330, looked up)
chain: EATFCDFPKINHGILYDEEKYKPFSQVPTGEVFYYSCEYNFVSPSKSFWTRITCTEEGWSPTPKCLRLCFFPFVENGHSESSGQTHLEGDTVQIICNTGYRLQNNENNISCVERGWSTPPKCRSTDTSCVNPPTVQNAHILSRQMSKYPSGERVRYECRSPYEMFGDEEVMCLNGNWTEPPQCKDSTGKCGPPPPIDNGDITSFPLSVYAPASSVEYQCQNLYQLEGNKRITCRNGQWSEPPKCLHPCVISREIMENYNIALRWTAKQKLYLRTGESAEFVCKRGYRLSSRSHTLRTTCWDGKLEYPTCAKR
notes: complement factor H-related protein 1, human, CFHR1*A variant, residues 19-330 of Q03591 (the mature protein, 5 SCR modules); no cleavage of the tag is told; Glycosylated; elutes as a mixture of dimers and monomers; also called wild-type CFHR1; CFHR1*A variant; source: Freestyle 293f cells, transiently transfected, secreted, purified (Histrap HP, Sephacryl S200 SEC); not shown: His6, N-terminal, …
  stoichiometry N: 2
